In the supplement of paper PMC11502859 one finds median enrichment data, which are given here for 104 substances.

“And” between values parts separate entries of the source, which are not always exact repeats. Equal entries are not always repeated.

The data set has as its system HEK293T. Briefly: median enrichment of reporter reads in eGFP-reduced (low/intermediate) vs eGFP-high sorted cells (eGFP-extension fusion abundance) (ratio); higher = stronger loss of eGFP-fusion protein abundance (more destabilising extension).
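Also: lentiviral eGFP-IRES-mCherry reporter pool sorted by FACS 96 h post-transduction, gated on mCherry-high cells, Illumina read counts normalized per million, median across four biological replicates.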

On to YGFLGFPSWACLLKA [CSF3R], for which the median enrichment turned out to be 5.35.
In the case of “LFCCCIYTSKGPDLLLLKLFFKTWNYKEIRSSITFDTNFYRN [TTC13]” it was 5.88.
In the case of YPWALPCYPFSPLEVPNLLHPLPLL [PPRC1], the median enrichment was 3.39.
Under “RLVIFFQRVMQSGYKRIFCLPYKGILPAAKFKQ [ARMC10]” stands 14.7.
Under QCITECGHQPRAAW [FOXJ2] stands 0.515; under SIPHPGSSAPRAGGHLRSVISL [IP6K2], 0.975; under YIMYYPDLVGKVLS [OPRM1], 11.7.
In the case of EFLSHSPTSTTTGQLSPFPTL [RNASE13] it was 0.565; in that of KPVLGPSVKYP [GNPDA1], 0.312.
With “RRGEGRPAVDSLILGRSLGCAAISFCECANTKLSRAKL [SLC25A25]”, the median enrichment stood at 8.98.
Take QRCEGIGETLGWLVMVSIAGHQKLDS [B4GALNT2]: the median enrichment amounted to 4.77.
Under “SAGRGSAPRKCLLCPGAERRCLLGAGLPPCGSCAPWPGPCPAAPVSPSLSPVLVLACSSSQPRESFPTCPRLLSLPRPVVPSW [ARHGAP39]” stands 4.7; under LELLCFDS [MAP4K3], 2.88; under QELTQQKRTASIPHAFTHQIILKNSDPQVF [TOR3A], 13.3.
Regarding YGRFY [OR5L1], the median enrichment is 1.25.
In the case of “WTGFAYLVLTLHHHHLMPTCPHPAELLSGHSLLLPFLLPLALPGPACTPVGWKCTAGSGSGSAPLWDPTFFSSLLLK [PTPN23]”, the median enrichment amounted to 7.32.
Regarding IIII [Ile04], the median enrichment was 11.9.
Under QSTTALSS [GALNT4] stands 0.487; under GGR [RGS21], 0.868; under QFLC [BEST3], 0.953.
Under YEQCIT [DCTN6] stands 2.67.
In the case of “QSTGRKCFWTEVVAVEGVASSCRQTIILEILVEVPSPIRHSNMSTNALKWN [EPHA3]” it was 14.9; in that of RGQWLRGYVVQMLLLP [FILIP1], 8.14; in that of WRLIIYQEC [PKIB], 7.89.
On to “WAVSLTCPGTPAPGLGRELTRTGCSQKAGPSLSPKPLLDLWRSCRLDREAVPLSSPSPSRASPWSFRSSFWGLFQVRRMEEGG [FOXN4]”, for which the median enrichment was found to be 4.84.
Under SYFRLESKTS [PIK3CG] stands 1.99.
Under “RTDCRSWEPRHAQASAEGAAGGSARLDPWHLIKKFSLMSMVVGQPSSLSQQAHAASVTSSPAVYTGHCGPEWLGPCRSYTTGC [ZFPM1]” stands 4.58; under WWWW [Trp04], 7.39.
Under “LNKLKMDLFFFNGNRTLCQITSYRNNSLFLTNLVLPYTSTGF [PTEN]” stands 9.05; under HHHH [His04], 0.323.
Take KKPPAQLETC [METTL16]: the median enrichment came to 0.455.
Under LAGVFVPVSLILSRH [KCNS3] stands 5.72; under “YKPGGSSHSCSQGHWARAAHAQEARFEGICEAAACCCTCAFSLPLPSLSSHGGVRSCPCSESTFPAIPGAGGACASAIPCDQA [TSSK6]”, 3.81.
For YKKRLLLGLDR [Degron FEM1B], the median enrichment amounted to 9.09.
Under QALSIPM [IDH3B] stands 0.815.
STVKEGVFVWTR [DSC1]: the median enrichment was 2.35.
Consider “LGLLHLPPSYLVPCRAPGLFGGTLGCTSGLPAPAAWAPPS [REEP4]”, for which the median enrichment is 5.64.
Under RGASSSE [SLC1A6] stands 0.611 and 0.437.
In the case of LKVLAGFT [DACH2] it was 4.2; in that of “LTATRMDTALAVPTLDRVSALLHTGGGAGAYSCSIKHPSYAPPQ [ACTL7A]”, 9.25.
For KAGTDLGPKIPFQRN [RBMXL2], the median enrichment was found to be 0.175.
Under “YKCGKAFTKSSYCVQHLKFNTEQMQYKCNDSGRTFIILEGL [ZNF736]” stands 22.3; under “ECPARAAAPATLPRVAFRAAPRVGNLGARGGRLGVPFFFSFSFAFRLFYFFLK”, 15.7; under RENQHP [CRYBG3], 0.514.
In the case of “YNQGSVTPCHAPTVEIPPLLKFFMVVSLPGSLMLS [KCNS1]” it was 11.7; in that of EFIFKRFSECAQNTWLK [TRMT10C], 5.59.
In the case of YKRFNFQ [IGSF6] it was 1.72; in that of LVW [ZNF160], 1.8.
With “RGNLQAEEVSAAALLEPGRGLPVSQPGPATQDSWDIPCVTPLRPFGLAPWLSLREVALRLAIYIYNLFT [HK3]”, the median enrichment came out at 4.11.
Turning to LAYLLVFVLKCDLRFNV [TMEM70], the median enrichment is 9.39.
Under SGSCCVPTETTIWGLLGNAVNAEGSDVWVL [PATZ1] stands 10.9.
With “CASTRAVGDSCPHLCPRAASCLALPPHSPPGMGLLLPGSLKETAAC [FAM160B2]”, the median enrichment amounted to 6.35.
As for “LRWLACWAWGLLTDSMEQGWAVCAHAQHALRGGGGGRGFLMSVQELKVSGVLPRICPTPHDKTELCNKQYQFILAVGFCFFSS [WDR6]”, the median enrichment turned out to be 7.93.
In the case of “LTYLSLSRSQAVRGNRSHLLSLQASVCLCLRTWILDFNDAVDNDGRKGVGC [MGA]” it was 8.5.
As for QTGQDPSTCTC [FCN1], the median enrichment came to 0.258.
Turning to “QKRMMMTFIIHKQWEVQQCLGADLRRRMIFLSLLTT [MROH9]”, the median enrichment stood at 20.2.
In the case of SQL [AMBN] it was 0.898.
Under “YSASSNLVFSKKNIYYLFLACHFNSSRDFTAGIF [RBM48]” stands 41.8.
As to YLVIHAFFPGQGSRVTRPPETSQEARALFK [SNX19], the median enrichment was 13.6.
For EILGSKYTSLFKNSNLI [OR10G4], the median enrichment was 11.8.
Under YFLSVILP [GLB1L3] stands 8.25; under “RNHKEPSVPVHEISLLLENRNIDYQITMQLKPYCFFEQLFIPVIKTDCAEYSKRSEIGVYNYIFSDAIY [RPE]”, 8.87.
Consider KMF [EFCAB2], for which the median enrichment was 0.649.
In the case of “PLLNLDFCPNPLPVTRSISLSLLSNGAWSTEASEAIALLAEVKRTLSPHLRLPCVEPASVCPSFHCSQCQTWAAAPRRLRPNQ [SLC18A3]” it was 5.19; in that of “YRRLPRAPPHSMTRLWIPHCTSHSPLSAPSPPCWSCSHTPGTGLGHPLLPACVFLILGRPG [KRT71]”, 6.31; in that of SDQLVCL [PPP1R15A], 0.401.
In the case of YELEQLGNKLSTSRHLLSFAMCLMP [OR51A7] it was 3.52; in that of YDLIQHRNDSH [IFNA6], 0.697.
In the case of YFFHKIC [CCDC102B] it was 10.6.
With SQSG [PARD6A], the median enrichment worked out at 1.41.
In the case of RCPGDVTDSWQSHGPRLPKSVCWQLFP [S100P] it was 8.26; in that of “QRLMQERCEGLRAGDCAILKPPLDLRTPRVGTSRVVGQPGSLYCGFSEA [MEIS3]”, 6.79.
Under QLFTLFFYIYLYIYIKIGS [CBX3] stands 10.2.
Turning to “PWTWYTSMWSCWARGVLCAVNSVGSCSGVGARFLPPWAEGPFPLVLCPHPPPFSCSWASALPRASQVLLGREGNGEKGEASSV [KLHDC3]”, the median enrichment is 6.21.
Under YAATDLGHLSQLAHPPPLPNFRYLSILLK [FBXL6] stands 5.29; under SPIQKFFLILFHLPISC [TRIO], 7.34.
In the case of YKLLKRFICVLLTRFFLFVACFGN [SKIL] it was 9.42; in that of YDLEFC [PQLC2L], 0.999.
Under KKVGRARPCQRG [Degron KLHDC3] stands 6.66; under “RPCAEALPGFTQLMDSSVLTLSTTPFTSLFDFRSYRHCLR [GINS1]”, 7.78.
Turning to SFLFYSH [DNAJB9], the median enrichment amounted to 9.2.
In the case of LRRVLSNLFFFFLYLHLQPQLSHFSP [MTMR11] it was 11.6; in that of “YLRTLPFFPLSSLPLPFLPIYPFPSSKSTQGEENKMTTQDLVAKILHSKSSFV [FGF12]”, 9.45; in that of YVI [UPRT], 1.22.
With “SGTVGCVGVGIPLAPASPTLALQLGPRGISVLLSQGRSPAGDGGRGSSILPRVCLGVCEQVCKTPEAEAILPPRSLEGVCAWA [ZSWIM4]”, the median enrichment was 5.27.
Under QYT [ZMYM5] stands 0.736; under “KVPMSQPGLWLPSIPSPEMAPWDEEGRVGCWCRIKIWQDRLPQGHRPLPPTRTPPTQLPLRVL [ITGA7]”, 17.1.
Under “RGLLALTLQPTLAVWPSPGSFPAPLPLFPVLLNSPSWRVQALGMGGTRPHSFHRALRPDTADQPHSAQEAASGVGAQRGTAAS [BAP1]” stands 2.63.
Regarding “RDSSACPPWGPCCRPGGQSRWERHSQGQGKEGTHTHTHTHTHTHTYILLSLPKPIRQVNGQCLLGPWTHFLLGEAAS [GLP1R]”, the median enrichment came to 3.35.
Under SYKSIVSDWTITSFNNVSNNVLY [FAM135A] stands 30.6; under YTSRTAT [NCOA6], 0.753; under SISL [NPAS4], 0.469.
Under WSSSSSFIGLSGC [EDARADD] stands 1.2; under CGCQLGRKRETRP [CCND2], 0.808.
Under QQQQQQQ [Gln07] stands 0.347.
Turning to CSWSRG [MLIP], the median enrichment is 6.67.
In the case of QQQQQQ [Gln06] it was 0.198; in that of YGLQKNWPWGTKAFFSGLLPRP [KANK4], 43.3.
Turning to “SPELTAQSVDRASVRRHRERPGGSLSMDSQTAGEHLGQPPEGPLLDPRENLLALAVILE [ICOSLG]”, the median enrichment stood at 2.2.
In the case of QAR [MMP10] it was 0.457; in that of “REQVPAPHTPWRLPLRLHRLLPSIQPGVQVALFRGQMQAVGRTLPVSCVPHRERLWGDGWGMQSLRANKSSSEPASPLNV [KHK]”, 2.84; in that of FFFFF [Phe05], 7.46.
In the case of YWCGK [NME7] it was 2.52; in that of TTTTT [Thr05], 0.336.
